Source: US20210238260A1 (published 2021)

B1: FIXa-R338E/T343R/E410N (enzyme)
chain 1: YNSGKLEEFVQGNLERECMEEKCSFEEAREVFENTERTTEFWKQYVDGDQCESNPCLNGGSCKDDINSYECWCPFGFEGKNCELDVTCNIKNGRCEQFCKNSADNKVVCSCTEGYRLAENQKSCEPAVPFPCGRVSVSQTSKLTR
chain 2: VVGGEDAKPGQFPWQVVLNGKVDAFCGGSIVNEKWIVTAAHCVETGVKITVVAGEHNIEETEHTEQKRNVIRIIPHHNYNAAINKYNHDIALLELDEPLVLNSYVTPICIADKEYTNIFLKFGSGYVSGWGRVFHKGRSALVLQYLRVPLVDRATCLESTKFRIYNNMFCAGFHEGGRDSCQGDSGGPHVTEVEGTSFLTGIISWGEECAMKGKYGIYTKVSRYVNWIKNKTKLT
notes: also called R170E/T175R/E240N (chymotrypsin numbering)
B2: FIXa-K228N/K247N/N249S/R318Y/R338E/T343R/R403E/E410N (enzyme)
chain 1: YNSGKLEEFVQGNLERECMEEKCSFEEAREVFENTERTTEFWKQYVDGDQCESNPCLNGGSCKDDINSYECWCPFGFEGKNCELDVTCNIKNGRCEQFCKNSADNKVVCSCTEGYRLAENQKSCEPAVPFPCGRVSVSQTSKLTR
chain 2: VVGGEDAKPGQFPWQVVLNGKVDAFCGGSIVNEKWIVTAAHCVETGVNITVVAGEHNIEETEHTEQNRSVIRIIPHHNYNAAINKYNHDIALLELDEPLVLNSYVTPICIADKEYTNIFLKFGSGYVSGWGRVFHKGYSALVLQYLRVPLVDRATCLESTKFRIYNNMFCAGFHEGGRDSCQGDSGGPHVTEVEGTSFLTGIISWGEECAMKGKYGIYTKVSEYVNWIKNKTKLT
notes: also called K63N/K82N/N84S/R150Y/R170E/T175R/R233E/E240N (chymotrypsin numbering)
B3: FIXa variant D104N/K106S/K247N/N249S/N260S (enzyme)
light: YNSGKLEEFVQGNLERECMEEKCSFEEAREVFENTERTTEFWKQYVDGDQCESNPCLNGGSCKDDINSYECWCPFGFEGKNCELDVTCNIKNGRCEQFCKNSANNSVVCSCTEGYRLAENQKSCEPAVPFPCGRVSVSQTSKLTR
heavy: VVGGEDAKPGQFPWQVVLNGKVDAFCGGSIVNEKWIVTAAHCVETGVKITVVAGEHNIEETEHTEQNRSVIRIIPHHNYSAAINKYNHDIALLELDEPLVLNSYVTPICIADKEYTNIFLKFGSGYVSGWGRVFHKGRSALVLQYLRVPLVDRATCLRSTKFTIYNNMFCAGFHEGGRDSCQGDSGGPHVTEVEGTSFLTGIISWGEECAMKGKYGIYTKVSRYVNWIKEKTKLT
B4: FIXa variant K247N/N249S/R318Y/R338E/R403E/E410N (enzyme)
light: YNSGKLEEFVQGNLERECMEEKCSFEEAREVFENTERTTEFWKQYVDGDQCESNPCLNGGSCKDDINSYECWCPFGFEGKNCELDVTCNIKNGRCEQFCKNSADNKVVCSCTEGYRLAENQKSCEPAVPFPCGRVSVSQTSKLTR
heavy: VVGGEDAKPGQFPWQVVLNGKVDAFCGGSIVNEKWIVTAAHCVETGVKITVVAGEHNIEETEHTEQNRSVIRIIPHHNYNAAINKYNHDIALLELDEPLVLNSYVTPICIADKEYTNIFLKFGSGYVSGWGRVFHKGYSALVLQYLRVPLVDRATCLESTKFTIYNNMFCAGFHEGGRDSCQGDSGGPHVTEVEGTSFLTGIISWGEECAMKGKYGIYTKVSEYVNWIKNKTKLT
notes: also called K82N/N84S/R150Y/R170E/R233E/E240N
B5: FIXa variant D104N/K106S/Y155F/K247N/N249S/N260S (enzyme)
light: YNSGKLEEFVQGNLERECMEEKCSFEEAREVFENTERTTEFWKQYVDGDQCESNPCLNGGSCKDDINSYECWCPFGFEGKNCELDVTCNIKNGRCEQFCKNSANNSVVCSCTEGYRLAENQKSCEPAVPFPCGRVSVSQTSKLTR
heavy: VVGGEDAKPGQFPWQVVLNGKVDAFCGGSIVNEKWIVTAAHCVETGVKITVVAGEHNIEETEHTEQNRSVIRIIPHHNYSAAINKYNHDIALLELDEPLVLNSYVTPICIADKEYTNIFLKFGSGYVSGWGRVFHKGRSALVLQYLRVPLVDRATCLRSTKFTIYNNMFCAGFHEGGRDSCQGDSGGPHVTEVEGTSFLTGIISWGEECAMKGKYGIYTKVSRYVNWIKEKTKLT
B6: FIXa variant Y155F/K247N/N249S/R318Y/R338E/R403E/E410N (enzyme)
light: YNSGKLEEFVQGNLERECMEEKCSFEEAREVFENTERTTEFWKQYVDGDQCESNPCLNGGSCKDDINSYECWCPFGFEGKNCELDVTCNIKNGRCEQFCKNSADNKVVCSCTEGYRLAENQKSCEPAVPFPCGRVSVSQTSKLTR
heavy: VVGGEDAKPGQFPWQVVLNGKVDAFCGGSIVNEKWIVTAAHCVETGVKITVVAGEHNIEETEHTEQNRSVIRIIPHHNYNAAINKYNHDIALLELDEPLVLNSYVTPICIADKEYTNIFLKFGSGYVSGWGRVFHKGYSALVLQYLRVPLVDRATCLESTKFTIYNNMFCAGFHEGGRDSCQGDSGGPHVTEVEGTSFLTGIISWGEECAMKGKYGIYTKVSEYVNWIKNKTKLT

What follows are binders tested against T1, Factor VIIIa (recombinant FVIII, Kogenate FS, activated with alpha-thrombin) (UniProt P00451 20-2351) (assay: functional cofactor affinity KD-app: fluorogenic FX activation (Xase) assay, FVIIIa titrated, PC/PS vesicles, saturating FX).
T1 construct: also called FVIIIa
T1 sequence (looked up): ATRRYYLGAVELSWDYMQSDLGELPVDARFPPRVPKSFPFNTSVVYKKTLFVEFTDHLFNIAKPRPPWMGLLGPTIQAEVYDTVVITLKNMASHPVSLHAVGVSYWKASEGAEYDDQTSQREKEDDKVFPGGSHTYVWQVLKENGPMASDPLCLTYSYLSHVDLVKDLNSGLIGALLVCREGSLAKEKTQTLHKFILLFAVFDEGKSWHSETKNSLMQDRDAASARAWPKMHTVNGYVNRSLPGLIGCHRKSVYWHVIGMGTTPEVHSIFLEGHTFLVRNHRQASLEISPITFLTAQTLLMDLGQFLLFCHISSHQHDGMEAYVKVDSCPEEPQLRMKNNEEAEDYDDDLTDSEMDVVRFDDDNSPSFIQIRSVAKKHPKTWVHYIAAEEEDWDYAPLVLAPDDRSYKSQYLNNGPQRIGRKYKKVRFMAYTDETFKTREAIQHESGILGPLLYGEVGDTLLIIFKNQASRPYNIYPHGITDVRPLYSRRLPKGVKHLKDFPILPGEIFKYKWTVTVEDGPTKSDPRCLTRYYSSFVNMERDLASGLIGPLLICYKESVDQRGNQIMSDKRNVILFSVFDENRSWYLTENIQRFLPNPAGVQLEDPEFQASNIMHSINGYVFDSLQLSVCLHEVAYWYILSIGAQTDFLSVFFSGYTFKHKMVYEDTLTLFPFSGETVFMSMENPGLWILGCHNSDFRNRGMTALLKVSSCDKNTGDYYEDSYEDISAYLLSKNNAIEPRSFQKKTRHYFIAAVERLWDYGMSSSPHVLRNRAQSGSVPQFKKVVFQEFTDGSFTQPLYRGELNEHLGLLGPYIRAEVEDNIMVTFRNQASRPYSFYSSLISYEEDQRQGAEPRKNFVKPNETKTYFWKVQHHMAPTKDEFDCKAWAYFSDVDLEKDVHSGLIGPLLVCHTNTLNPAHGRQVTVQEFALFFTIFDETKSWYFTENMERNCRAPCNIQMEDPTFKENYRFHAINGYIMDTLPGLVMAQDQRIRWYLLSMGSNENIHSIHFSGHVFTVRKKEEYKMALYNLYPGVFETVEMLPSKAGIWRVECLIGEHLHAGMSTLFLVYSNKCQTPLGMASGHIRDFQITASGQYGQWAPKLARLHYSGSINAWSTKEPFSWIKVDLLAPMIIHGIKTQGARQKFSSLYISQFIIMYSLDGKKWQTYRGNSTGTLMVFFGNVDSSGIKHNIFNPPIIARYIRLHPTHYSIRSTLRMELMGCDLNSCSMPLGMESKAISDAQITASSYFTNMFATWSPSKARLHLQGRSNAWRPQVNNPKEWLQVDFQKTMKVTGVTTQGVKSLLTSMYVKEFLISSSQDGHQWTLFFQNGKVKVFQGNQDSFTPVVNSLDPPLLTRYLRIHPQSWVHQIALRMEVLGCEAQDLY
For B1, the Kd was 7.5 nM. Work on B2 yielded a Kd of 29.1 nM.

What follows are binders tested against T2, Factor VIIIa (FVIIIa), from recombinant FVIII (Kogenate FS; Bayer healthcare) activated with alpha-thrombin (UniProt P00451 20-2351) (assay: apparent functional KD (KD-app): FX activation rate vs FVIIIa titration, fluorogenic Xase assay with PC/PS vesicles and Ca2+).
T2 sequence (looked up): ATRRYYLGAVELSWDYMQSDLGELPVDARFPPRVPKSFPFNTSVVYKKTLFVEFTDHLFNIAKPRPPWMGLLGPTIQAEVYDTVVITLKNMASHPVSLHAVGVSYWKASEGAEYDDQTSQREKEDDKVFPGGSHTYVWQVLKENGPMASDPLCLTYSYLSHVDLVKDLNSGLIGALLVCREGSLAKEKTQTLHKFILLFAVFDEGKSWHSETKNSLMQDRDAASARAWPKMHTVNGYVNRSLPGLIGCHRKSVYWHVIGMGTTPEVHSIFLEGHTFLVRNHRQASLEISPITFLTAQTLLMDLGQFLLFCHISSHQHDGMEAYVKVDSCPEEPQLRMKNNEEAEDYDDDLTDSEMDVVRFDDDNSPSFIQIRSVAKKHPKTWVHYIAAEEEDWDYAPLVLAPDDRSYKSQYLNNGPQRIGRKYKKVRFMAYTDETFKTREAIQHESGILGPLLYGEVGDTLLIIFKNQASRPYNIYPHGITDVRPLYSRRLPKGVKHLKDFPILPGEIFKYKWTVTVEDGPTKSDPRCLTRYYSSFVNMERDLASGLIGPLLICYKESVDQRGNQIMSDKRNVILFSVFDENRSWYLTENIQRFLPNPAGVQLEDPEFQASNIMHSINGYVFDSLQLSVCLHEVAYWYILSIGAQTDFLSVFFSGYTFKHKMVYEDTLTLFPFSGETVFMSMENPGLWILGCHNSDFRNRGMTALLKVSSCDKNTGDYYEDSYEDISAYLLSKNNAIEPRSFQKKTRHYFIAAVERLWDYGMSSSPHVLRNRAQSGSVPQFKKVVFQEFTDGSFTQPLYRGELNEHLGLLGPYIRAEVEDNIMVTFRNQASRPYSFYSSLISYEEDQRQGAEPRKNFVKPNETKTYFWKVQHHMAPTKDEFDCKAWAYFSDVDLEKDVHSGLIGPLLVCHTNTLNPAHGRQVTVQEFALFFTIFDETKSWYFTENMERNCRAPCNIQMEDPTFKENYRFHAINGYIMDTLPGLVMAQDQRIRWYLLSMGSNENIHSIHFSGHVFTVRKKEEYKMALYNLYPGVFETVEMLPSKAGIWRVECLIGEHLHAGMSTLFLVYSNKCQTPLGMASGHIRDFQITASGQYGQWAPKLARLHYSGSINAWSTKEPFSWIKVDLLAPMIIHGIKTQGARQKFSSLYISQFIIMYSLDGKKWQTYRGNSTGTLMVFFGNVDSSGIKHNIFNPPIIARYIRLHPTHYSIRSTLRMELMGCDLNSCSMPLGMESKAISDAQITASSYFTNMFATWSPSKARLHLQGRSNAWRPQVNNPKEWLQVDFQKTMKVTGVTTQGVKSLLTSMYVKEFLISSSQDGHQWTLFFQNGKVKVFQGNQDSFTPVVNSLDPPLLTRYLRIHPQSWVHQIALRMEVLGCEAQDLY
For B3, the Kd was 330 nM. Work on B4 yielded a Kd of 68.6 nM. B5 was tested, and the Kd was 142 nM. Binder B6 has a Kd of 45.8 nM.
